Molecular target: β-银环蛇毒素 (银环蛇) (UniProt P00617)

B1: β-BGT单克隆抗体株3B10B7 (antibody)
VH: LTMNFGLSWVFLVLTLKGVKCVVQLLESGRGLVKPGGSLKLSCAASGFAFSTYDTSWVRQTPEKRLEWVTYTSRGAGNTYYPDTVKGRFTISRDNAKNTLYVQMSSLKSEDTAMYYCARQSAWSLPIDYWGQGTLVTVSAAKTTPPSVYPLAPVCGG
VL: DIVMTQTPASLAVSLGQRATISYRTSKRVTTSGYSYMHWNQQKPGQPPRLLIYLASILESGVPARFSGSGSGTDFTLNIHPVEEEDAATYYCQHISELIRSEGGPSWKSNGLMLHQLYP
- 检测限: 20 ng/mL

B2: β-BGT单克隆抗体株2B10E7 (antibody)
VH: LTMDFGLSWVFLVLTLKGVKCEVQLVESGGGLVKPGGSLKLSCAASGFAFSTSDISWVRQTPEKRLEWVTYISNGAGNTYNPDTDKGTFTISRDNAKNTLYVQMSSLKSEDTAMYYCARHNASSLQFAYWGQGTLVTVSAVKTTPPSVYPLAPVCGD
VL: DIVLTQSPASLAVSLGQRATISYRDSKSVSRSGYSYMHWNQQKPGQPPRLLIYLVSYLESGVPARFSGSGSGTDFTLNIHPVEEEDAATYYCQHTRELTRSEGGPSWKLNGLMLHQLYP
- 检测限: 20 ng/mL
